Reference: US20030035790A1, “Combination therapy for the prevention or treatment of cancer, inflammatory disorders or infectious diseases in a subject” (priority 1999, published 2003)

What was measured:
[1] = system: Fr.II cells derived from the bone marrow of MCA26 tumor-bearing mice; experiment: In vitro differentiation of bone marrow Fr.II myeloid progenitor cells, flow cytometry; format: cell-based, mouse; details: 10 days GM-CSF, then additional 24 hours
Protocol: FIG. 19. Immunostaining of DCs generated from different culture conditions. BM Fr.II cells derived from naive and MCA-26 tumor bearing mice were cultured with mGM-CSF for 10 days. Non-adherent cells were harvested and cultured in the presence of mGM-CSF or mGM-CSF and anti-CD40 mAb ([…], FGK45 clone) for additional 24 hours. Non-adherent cells were stained and analyzed for the expression of various surface molecules by flow cytometry. Mean±SD is obtained from three independent experiments.
The ability of Fr.II cells derived from the bone marrow of MCA26 tumor-bearing mice to differentiate into dendritic cells when cultured under various conditions was assessed. Fr.II cells from derived the bone marrow of tumor-free or MCA26 tumor-bearing mice were cultured for 10 days with GM-CSF. Then non-adherent cells were harvested and cultured for additional 24 hours in the presence of GM-CSF or GM-CSF and anti-CD40 monoclonal antibody. The non-adherent cells were stained and analyzed for the expression of various cell surface molecules by flow cytometry. The expression of CD40, CD80, and MHC class II was relatively low in the tumor-bearing mice. However, after culturing the Fr. II cells with GM-CSF or GM-CSF and anti-CD40 monoclonal antibody, the expression of CD40, CD 80, CD11c and MHC class II by the Fr. […]

[2] = system: TILs; experiment: In vitro GM-CSF stimulation of TILs from large tumor-bearing mice, surface marker staining; format: cell-based, mouse; details: GM-CSF 100 ng/ml for 5 days
Protocol: The ability of in vitro stimulation with GM-CSF to promote the differentiation of tumor infiltrating lymphocytes (TILs) into dendritic cells or macrophages by was assessed. The TILs were isolated from large tumor-bearing mice, separated on a lymphocyte separation gradient, cultured with or without GM-CSF (100 ng/ml) for 5 days, and then stained with various cell surface markers. A reproducibly high percentage of Gr-1^+ cells was resent in the TIL population (65.5%), while the percentage of dendritic cells in the TIL population was very low (0.31%); some macrophages (14.9%) were also present in the TIL population.

B1: GM-CSF: murine granulocyte macrophage colony-stimulating factor added to cultures (protein, UniProt P01587 18-141, looked up)
Granulocyte-macrophage …: APTRSPITVTRPWKHVEAIKEALNLLDDMPVTLNEEVEVVSNEFSFKKLTCVQTRLKIFEQGLRGNFTKLKGALNMTASYYQTYCPPTPETDCETQVTTYADFIDSLKTFLTDIPFECKKPGQK
expression of CD40, CD 80, CD11c and MHC class II by the Fr. II cells [1]: significantly increased | Gr-1^+ cells in the TIL population [2]: 42.7% | dendritic cells in the TIL population [2]: 13.9% | macrophages in the TIL population [2]: 24.3%
